B1: CD33 antibody JL3 combined with Vdelta2 antibody 5D3 (JL3x5D3), Fab (CD33) x VHH (Vδ2) Fc construct (bispecific antibody, human IgG1, lambda, L234A L235A)
heavy: QVQLQESGPGLVKPSETLSLTCSVSGGSIRNYYWSWIRQSAGKELEWFGHIFSTGHINYDSSLKSRVTMSVDTSNNQFSLKLRSVTAADTAVYYCARDNGAALFDFWGQGTLVTVSSASTKGPSVFPLAPSSKSTSGGTAALGCLVKDYFPEPVTVSWNSGALTSGVHTFPAVLQSSGLYSLSSVVTVPSSSLGTQTYICNVNHKPSNTKVDKKVEPKSCDKTHTCPPCPAPEAAGGPSVFLFPPKPKDTLMISRTPEVTCVVVSVSHEDPEVKFNWYVDGVEVHNAKTKPREEQYNSTYRVVSVLTVLHQDWLNGKEYKCKVSNKALPAPIEKTISKAKGQPREPQVYTLPPSREEMTKNQVSLSCAVKGFYPSDIAVEWESNGQPENNYKTTPPVLDSDGSFFLVSKLTVDKSRWQQGNVFSCSVMHEALHNRFTQKSLSLSPGK
light: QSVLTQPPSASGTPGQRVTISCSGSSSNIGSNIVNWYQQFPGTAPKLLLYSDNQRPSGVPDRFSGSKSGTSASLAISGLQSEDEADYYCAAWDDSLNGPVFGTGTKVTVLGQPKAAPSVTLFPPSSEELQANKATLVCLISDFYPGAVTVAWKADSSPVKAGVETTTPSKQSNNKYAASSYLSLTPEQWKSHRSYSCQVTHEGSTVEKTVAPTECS
chain: EVQLVESGGGLVQAGGSLRLSCAASGRPFSNYAMGWFRQAPGKEREFVTVISWSGGSTYYADSVKGRFTISRDNAKNTVYLQMNSLKPEDTAVYYCAAQFSGASTVVAGTALDYDYWGQGTRVTVSSEPKSSDKTHTCPPCPAPEAAGGPSVFLFPPKPKDTLMISRTPEVTCVVVSVSHEDPEVKFNWYVDGVEVHNAKTKPREEQYNSTYRVVSVLTVLHQDWLNGKEYKCKVSNKALPAPIEKTISKAKGQPREPQVYTLPPSREEMTKNQVSLWCLVKGFYPSDIAVEWESNGQPENNYKTTPPVLDSDGSFFLYSKLTVDKSRWQQGNVFSCSVMHEALHNHYTQKSLSLSPGK
B2: CD33 antibody JL5 combined with Vdelta2 antibody 5D3 (JL5x5D3), Fab (CD33) x VHH (Vδ2) Fc construct (bispecific antibody, human IgG1, lambda, L234A L235A)
heavy: QVQLQESGPGLVKPSETLSLTCSVSGASIRNYYWSWIRQTAGKGLEWLGHIYSTGNIHYNPSLKSRVTMSVDTSNNQFSLKLRSVTAADTAVYYCARDNGAALFDYWGQGTLVTVSSASTKGPSVFPLAPSSKSTSGGTAALGCLVKDYFPEPVTVSWNSGALTSGVHTFPAVLQSSGLYSLSSVVTVPSSSLGTQTYICNVNHKPSNTKVDKKVEPKSCDKTHTCPPCPAPEAAGGPSVFLFPPKPKDTLYITREPEVTCVVVSVSHEDPEVKFNWYVDGVEVHNAKTKPREEQYNSTYRVVSVLTVLHQDWLNGKEYKCKVSNKALPAPIEKTISKAKGQPREPQVYTLPPSREEMTKNQVSLSCAVKGFYPSDIAVEWESNGQPENNYKTTPPVLDSDGSFFLVSKLTVDKSRWQQGNVFSCSVMHEALHNRFTQKSLSLSPGK
light: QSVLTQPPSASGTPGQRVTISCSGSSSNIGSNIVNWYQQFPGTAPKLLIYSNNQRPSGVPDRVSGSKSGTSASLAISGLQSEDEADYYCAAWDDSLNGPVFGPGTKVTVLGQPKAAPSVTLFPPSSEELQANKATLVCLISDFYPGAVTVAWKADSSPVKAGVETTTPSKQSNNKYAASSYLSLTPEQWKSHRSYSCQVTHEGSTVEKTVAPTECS
chain: B1 chain with M164Y, S166T, T168E
B3: CD33 antibody JL6 combined with Vdelta2 antibody 5D3 (JL6x5D3), Fab (CD33) x VHH (Vδ2) Fc construct (bispecific antibody, human IgG1, lambda, L234A L235A)
heavy: QVQLQESGPGLVKPSETLSLTCTVSGGSISSYYWGWIRQPPGKGLEWIGYIYYSGSTNYNPSLKSRVTISVDTSKNQFSLKLSSVTAADTAVYYCARMWEILGFDPWGQGTLVTVSSASTKGPSVFPLAPSSKSTSGGTAALGCLVKDYFPEPVTVSWNSGALTSGVHTFPAVLQSSGLYSLSSVVTVPSSSLGTQTYICNVNHKPSNTKVDKKVEPKSCDKTHTCPPCPAPEAAGGPSVFLFPPKPKDTLMISRTPEVTCVVVSVSHEDPEVKFNWYVDGVEVHNAKTKPREEQYNSTYRVVSVLTVLHQDWLNGKEYKCKVSNKALPAPIEKTISKAKGQPREPQVYTLPPSREEMTKNQVSLSCAVKGFYPSDIAVEWESNGQPENNYKTTPPVLDSDGSFFLVSKLTVDKSRWQQGNVFSCSVMHEALHNRFTQKSLSLSPGK
light: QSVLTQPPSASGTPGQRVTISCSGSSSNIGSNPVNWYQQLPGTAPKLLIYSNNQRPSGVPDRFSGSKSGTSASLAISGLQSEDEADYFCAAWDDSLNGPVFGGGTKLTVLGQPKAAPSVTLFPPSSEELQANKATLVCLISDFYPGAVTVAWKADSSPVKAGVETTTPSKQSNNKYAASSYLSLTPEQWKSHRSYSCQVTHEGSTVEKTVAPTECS
chain: B1 chain

Residue numbers refer to the chain shown, from its start.

For this assay, the target named is human CD33 on CD33-expressing THP-1 cells (human, UniProt P20138 18-364). As to the kind of experiment: cell-based or functional assay.
Sequence of human CD33 on CD33-expressing THP-1 cells (P20138 18-364): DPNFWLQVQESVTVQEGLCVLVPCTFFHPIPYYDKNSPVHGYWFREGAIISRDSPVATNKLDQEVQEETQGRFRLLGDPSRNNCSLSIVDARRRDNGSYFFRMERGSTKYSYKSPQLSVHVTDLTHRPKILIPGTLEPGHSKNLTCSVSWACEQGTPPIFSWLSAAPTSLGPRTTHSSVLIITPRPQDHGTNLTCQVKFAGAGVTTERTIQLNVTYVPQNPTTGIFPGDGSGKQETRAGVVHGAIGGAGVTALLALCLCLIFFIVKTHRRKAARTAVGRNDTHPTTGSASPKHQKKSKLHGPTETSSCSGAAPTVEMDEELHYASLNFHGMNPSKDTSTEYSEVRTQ
Take B1: the “Cytotox EC50 (pM) E:T 1:1 - 22 hrs” value was 15 pM and the “Cytotox EC50 (pM) E:T 1:20 - 94 hrs” value was 77 pM.

Consider B2, for which the “Cytotox EC50 (pM) E:T 1:1 - 22 hrs” value worked out at 12 pM and the “Cytotox EC50 (pM) E:T 1:20 - 94 hrs” value was found to be 45 pM.

With B3, the “Cytotox EC50 (pM) E:T 1:1 - 22 hrs” value came out at 63 pM and the “Cytotox EC50 (pM) E:T 1:20 - 94 hrs” value is approximately 560 pM.

For the origin of these results see patent US20240409634A1 (Janssen / Centocor, published 2024).
